For this data set, the target named is NF-kB p50 (recombinant, Promega) (UniProt P19838 1-433). Briefly: EMSA; LightShift EMSA kit binding buffer, 1 ug poly(dI-dC), 30 fmol biotin probe, 20 ul, room temperature 20 min; 7.5% PAGE in 0.25x TBE; salt and pH not stated. As to conditions: protein: commercial; chain copies: 2; label: 5'-biotin; blunt. (A gel shift assay detects complexes by their altered migration in electrophoresis.)
Chain of NF-kB p50 (recombinant, Promega) (P19838 1-433): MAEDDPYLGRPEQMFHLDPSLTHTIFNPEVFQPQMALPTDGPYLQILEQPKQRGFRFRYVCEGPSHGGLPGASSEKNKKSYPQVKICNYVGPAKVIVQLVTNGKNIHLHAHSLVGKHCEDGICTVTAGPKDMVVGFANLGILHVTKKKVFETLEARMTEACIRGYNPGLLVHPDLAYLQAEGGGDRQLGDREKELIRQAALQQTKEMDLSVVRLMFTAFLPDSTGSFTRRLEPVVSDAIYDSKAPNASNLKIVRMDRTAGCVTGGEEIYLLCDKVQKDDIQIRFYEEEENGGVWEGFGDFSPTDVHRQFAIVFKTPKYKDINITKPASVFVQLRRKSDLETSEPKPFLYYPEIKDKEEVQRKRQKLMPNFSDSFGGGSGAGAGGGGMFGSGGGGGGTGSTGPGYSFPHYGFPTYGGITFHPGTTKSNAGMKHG

B1: wt huPIK3CA NF-kB probe (dsDNA)
DNA 1: GACGTGGGGGATTTTTCGCGTA
DNA 2: TACGCGAAAAATCCCCCACGTC
With B1, the binding result was “binds”.
